Source: patent US20090074747A1 (IRM, published 2009)
Where a chain is given by its changes, count along the chain named.

T1: human TSLPR on cells (Ba/F3 cells stably overexpressing hTSLPR/hIL7Rα/Stat5-Luc; primary human monocytes) (human, UniProt Q9HC73 23-371)
T1 sequence (looked up): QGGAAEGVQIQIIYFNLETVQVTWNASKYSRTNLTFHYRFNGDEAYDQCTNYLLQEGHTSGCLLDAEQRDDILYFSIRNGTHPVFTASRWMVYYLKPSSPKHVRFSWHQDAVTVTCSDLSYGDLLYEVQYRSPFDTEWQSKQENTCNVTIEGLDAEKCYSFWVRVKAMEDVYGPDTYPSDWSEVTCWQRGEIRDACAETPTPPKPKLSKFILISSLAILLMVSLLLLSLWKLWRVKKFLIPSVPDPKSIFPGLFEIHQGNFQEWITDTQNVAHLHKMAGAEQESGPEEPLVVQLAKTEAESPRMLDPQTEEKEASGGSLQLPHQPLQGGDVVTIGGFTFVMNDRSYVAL

B1: NV163-1-Fab' (Fab, V domains shown)
VH: QVQLVQSGSELKKPGASVKVSCKASGYTFTSYGISWVRQAPGQGLEWMGWVNTNTGNPRYAQGFTGRFVFSLDTSVSTAYLQISSLKAEDTAVYYCAREGFIRTVVGAAGRFVYWGQGTLVTVSS
VL: DIQMTQSPSSLSASVGDRVTITCRASQDIHTRLAWYQQKPGKAPKLLIYWASTRGSGVPSRFSGSGSGTDFTLTISSLQPEDFATYYCQQYSAYPTFGQGTKLEIK
B2: NV164-1-IgG1 (antibody, V domains shown)
VH: B1 VH with I34M
VL: DIQMTQSPSSLSASVGDRVTITCRASQDIHTRLAWYQQKPGKAPKLLIYWASTLQSGVPSRFSGSGSGTDFTLTISSLQPEDFATYYCQQYSAYPTFGQGTKLEIKG
B3: NV115-3B-IgG1 (antibody, V domains shown)
VH: B1 VH with S9A, L11V, S31T, V37L, R103T
VL: B1 VL with K42Q, A43P, G55A, S60D, S65T, P80A, F83V, T85V, A93T
B4: NV164-1-Fab' (Fab, V domains shown)
VH: B1 VH with I34M
VL: B1 VL with R54L, G55Q

Molecular target: T1, human TSLPR on cells (Ba/F3 cells …)
Test: cell-based or functional assay

Row | Binder | IC50, luciferase reporter gene assay (Stat5-Luc) [nM] | IC50, inhibition of TARC secretion from primary human monocytes [nM] | IC50, luciferase reporter gene assay (Stat5-Luc), natural human TSLP [nM] | IC50, luciferase reporter gene assay (Stat5-Luc), recombinant human TSLP [nM]
1 | B1 | 2.7 |  |  | 
2 | B2 |  | 0.011 | 0.04 | 0.221
3 | B3 |  | 0.01 | 0.05 | 0.126
4 | B4 | 4 |  |  | 
